Experimental data published in patent US20260242419A1, “A CYCLIC PEPTIDE FOR TRAPPING INTERLEUKIN-1 BETA” (Merck Sharp & Dohme LLC, priority 2023, published 2026).
Starred links: 1 amine or outer side, 2 acyl side, 3 side chain; linkers in the order of their positions; H or OH if unused. Non-standard residues stand in square brackets, D forms with d. Primed or numbered codes have the meaning given here. AEFBz4Piperaz = (S)-2-amino-3-(4-(2-(4-(piperazin-1-yl)benzamido)ethoxy)phenyl)propanoic acid, O=C(NCCOc1ccc(C[C@H](N[*:1])C(=O)[*:2])cc1)c1ccc(N2CCN([*:3])CC2)cc1; AEF4AcPip4c = (S)-3-(4-(2-(1-acetylpiperidine-4-carboxamido)ethoxy)phenyl)-2-aminopropanoic acid, CC(=O)N1CCC(C(=O)NCCOc2ccc(C[C@H](N[*:1])C(=O)[*:2])cc2)CC1; AEF2PyrimCO = (S)-2-amino-3-(4-(2-(pyrimidine-2-carboxamido)ethoxy)phenyl)propanoic acid, O=C(NCCOc1ccc(C[C@H](N[*:1])C(=O)[*:2])cc1)c1ncccn1; AEF4PyrimCO = (S)-2-amino-3-(4-(2-(pyrimidine-4-carboxamido)ethoxy)phenyl)propanoic acid, O=C(NCCOc1ccc(C[C@H](N[*:1])C(=O)[*:2])cc1)c1ccncn1; AEFPyrzCO = (S)-2-amino-3-(4-(2-(pyrazine-2-carboxamido)ethoxy)phenyl)propanoic acid, O=C(NCCOc1ccc(C[C@H](N[*:1])C(=O)[*:2])cc1)c1cnccn1; AEFcHex = (S)-2-amino-3-(4-(2-(cyclohexanecarboxamido)ethoxy)phenyl)propanoic acid, O=C(NCCOc1ccc(C[C@H](N[*:1])C(=O)[*:2])cc1)C1CCCCC1; AEF4PyrCO = (S)-2-amino-3-(4-(2-(isonicotinamido)ethoxy)phenyl)propanoic acid, O=C(NCCOc1ccc(C[C@H](N[*:1])C(=O)[*:2])cc1)c1ccncc1; AEFPiv = (S)-2-amino-3-(4-(2-pivalamidoethoxy)phenyl)propanoic acid, CC(C)(C)C(=O)NCCOc1ccc(C[C@H](N[*:1])C(=O)[*:2])cc1; AEFBz = (S)-2-amino-3-(4-(2-benzamidoethoxy)phenyl)propanoic acid, O=C(NCCOc1ccc(C[C@H](N[*:1])C(=O)[*:2])cc1)c1ccccc1; TyrEtNAc = (2S)-3-[4-(2-acetamidoethoxy)phenyl]-2-amino-propanoic acid, CC(=O)NCCOc1ccc(C[C@H](N[*:1])C(=O)[*:2])cc1; 4PyrimAla″ = 3-(pyrimidin-4-yl)alanine, O=C([C@H](Cc1ccncn1)N[*:1])[*:2]; dPro(4R-(4-pyridylmethyl)) = O=C(O)[C@H]1C[C@@H](Cc2ccncc2)CN1; Trp(βS-Me,4-F) = C[C@@H](c1c[nH]c2cccc(F)c12)[C@H](N)C(=O)O; Bip(4'-COOH) = N[C@@H](Cc1ccc(-c2ccc(C(=O)O)cc2)cc1)C(=O)O; dPro(4R-Bzl(4-F)) = O=C(O)[C@H]1C[C@@H](Cc2ccc(F)cc2)CN1; dPro(3S-(4-F-Bn)) = O=C(O)[C@@H]1NCC[C@@H]1Cc1ccc(F)cc1; Ala(pyrimidin-5-yl) = N[C@@H](Cc1cncnc1)C(=O)O; Phe(4-COOH) = N[C@@H](Cc1ccc(C(=O)O)cc1)C(=O)O; Phe(4-tBu) = CC(C)(C)c1ccc(C[C@H](N)C(=O)O)cc1; Phe(3-Cl) = N[C@@H](Cc1cccc(Cl)c1)C(=O)O; Pro(cis-4-F) = O=C(O)[C@@H]1C[C@H](F)CN1; Ala(4-THP) = N[C@@H](CC1CCOCC1)C(=O)O; d(αMeD) = C[C@@](N)(CC(=O)O)C(=O)O; 4Pal = N[C@@H](Cc1ccncc1)C(=O)O; Dab = NCC[C@H](N)C(=O)O; Aib = CC(C)(N)C(=O)O

B1: SEQ ID NO 301 (peptide)
peptide: cyclo([AEFcHex][4Pal][Phe(4-COOH)]G[Pro(cis-4-F)][Trp(βS-Me,4-F)][Aib]SW[Aib][Ala(pyrimidin-5-yl)]Q[Dab]G[dPro(4R-(4-pyridylmethyl))])
modifications: ring closure inferred; not fully specified (N-terminus)
B2: SEQ ID NO 313 (peptide)
peptide: cyclo([Bip(4'-COOH)][4Pal][Phe(4-COOH)]G[Pro(cis-4-F)][Trp(βS-Me,4-F)][Aib]SW[d(αMeD)][Ala(4-THP)]Q[Dab]G[dPro(4R-Bzl(4-F))])
modifications: ring closure inferred; not fully specified (N-terminus); printed as cyclic, Bip4CO2H-4Pal-Phe4COOH-G-Proc4F-SbMeW4F-Aib-S-W-daMeD-AlaTHP4-Q-Dab-G-dProc4Bn4F
B3: SEQ ID NO 310 (peptide)
peptide: cyclo([TyrEtNAc][4Pal][Phe(4-COOH)]G[Pro(cis-4-F)][Trp(βS-Me,4-F)][Aib]EW[Aib]YQ[Dab]G[dPro(4R-(4-pyridylmethyl))])
modifications: ring closure inferred; not fully specified (N-terminus)
B4: SEQ ID NO 311 (peptide)
peptide: cyclo([Phe(4-tBu)][4Pal][Phe(4-COOH)]G[Pro(cis-4-F)][Trp(βS-Me,4-F)][Aib]EW[Aib][Ala(pyrimidin-5-yl)]Q[Dab]G[dPro(4R-(4-pyridylmethyl))])
modifications: ring closure inferred; not fully specified (N-terminus); printed as cyclic, Phe4tButyl-4Pal-Phe4COOH-G-Proc4F-SbMeW4F-Aib-E-W-Aib-PyrimAla-Q-Dab-G-dProc4CH24Pal
B5: SEQ ID NO 302 (peptide)
peptide: cyclo([AEF4AcPip4c][4Pal][Phe(4-COOH)]G[Pro(cis-4-F)][Trp(βS-Me,4-F)][Aib]SW[Aib][Ala(pyrimidin-5-yl)]Q[Dab]G[dPro(4R-(4-pyridylmethyl))])
modifications: ring closure inferred; not fully specified (N-terminus); printed as cyclic, AEF4AcPip4c-4Pal-Phe4COOH-G-Proc4F-SbMeW4F-Aib-S-W-Aib-PyrimAla-Q-Dab-G-dProc4CH24Pal
B6: SEQ ID NO 305 (peptide)
peptide: cyclo([AEF4PyrimCO][4Pal][Phe(4-COOH)]G[Pro(cis-4-F)][Trp(βS-Me,4-F)][Aib]SW[Aib][Ala(pyrimidin-5-yl)]Q[Dab]G[dPro(4R-(4-pyridylmethyl))])
modifications: ring closure inferred; not fully specified (N-terminus); printed as cyclic, AEF4PyrimCO-4Pal-Phe4COOH-G-Proc4F-SbMeW4F-Aib-S-W-Aib-PyrimAla-Q-Dab-G-dProc4CH24Pal
B7: SEQ ID NO 308 (peptide)
peptide: cyclo([AEFBz][4Pal][Phe(4-COOH)]G[Pro(cis-4-F)][Trp(βS-Me,4-F)][Aib]SW[Aib][Ala(pyrimidin-5-yl)]Q[Dab]G[dPro(4R-(4-pyridylmethyl))])
modifications: ring closure inferred; not fully specified (N-terminus); printed as cyclic, AEFBz-4Pal-Phe4COOH-G-Proc4F-SbMeW4F-Aib-S-W-Aib-PyrimAla-Q-Dab-G-dProc4CH24Pal
B8: SEQ ID NO 303 (peptide)
peptide: cyclo([AEFPyrzCO][4Pal][Phe(4-COOH)]G[Pro(cis-4-F)][Trp(βS-Me,4-F)][Aib]SW[Aib][Ala(pyrimidin-5-yl)]Q[Dab]G[dPro(4R-(4-pyridylmethyl))])
modifications: ring closure inferred; not fully specified (N-terminus); printed as cyclic, AEFPyrzCO-4Pal-Phe4COOH-G-Proc4F-SbMeW4F-Aib-S-W-Aib-PyrimAla-Q-Dab-G-dProc4CH24Pal
B9: SEQ ID NO 300 (peptide)
peptide: cyclo([AEFPiv][4Pal][Phe(4-COOH)]G[Pro(cis-4-F)][Trp(βS-Me,4-F)][Aib]SW[Aib][Ala(pyrimidin-5-yl)]Q[Dab]G[dPro(4R-(4-pyridylmethyl))])
modifications: ring closure inferred; not fully specified (N-terminus)
B10: SEQ ID NO 306 (peptide)
peptide: cyclo([AEFBz4Piperaz][4Pal][Phe(4-COOH)]G[Pro(cis-4-F)][Trp(βS-Me,4-F)][Aib]SW[Aib][Ala(pyrimidin-5-yl)]Q[Dab]G[dPro(4R-(4-pyridylmethyl))])
modifications: ring closure inferred; not fully specified (N-terminus); printed as cyclic, AEFBz4Piperaz-4Pal-Phe4COOH-G-Proc4F-SbMeW4F-Aib-S-W-Aib-PyrimAla-Q-Dab-G-dProc4CH24Pal
B11: SEQ ID NO 304 (peptide)
peptide: cyclo([AEF2PyrimCO][4Pal][Phe(4-COOH)]G[Pro(cis-4-F)][Trp(βS-Me,4-F)][Aib]SW[Aib][Ala(pyrimidin-5-yl)]Q[Dab]G[dPro(4R-(4-pyridylmethyl))])
modifications: ring closure inferred; not fully specified (N-terminus); printed as cyclic, AEF2PyrimCO-4Pal-Phe4COOH-G-Proc4F-SbMeW4F-Aib-S-W-Aib-PyrimAla-Q-Dab-G-dProc4CH24Pal
B12: SEQ ID NO 307 (peptide)
peptide: cyclo([AEF4PyrCO][4Pal][Phe(4-COOH)]G[Pro(cis-4-F)][Trp(βS-Me,4-F)][Aib]SW[Aib][Ala(pyrimidin-5-yl)]Q[Dab]G[dPro(4R-(4-pyridylmethyl))])
modifications: ring closure inferred; not fully specified (N-terminus); printed as cyclic, AEF4PyrCO-4Pal-Phe4COOH-G-Proc4F-SbMeW4F-Aib-S-W-Aib-PyrimAla-Q-Dab-G-dProc4CH24Pal
B13: SEQ ID NO 309 (peptide)
peptide: cyclo([TyrEtNAc][4Pal][Phe(4-COOH)]G[Pro(cis-4-F)][Trp(βS-Me,4-F)][Aib]EW[Aib][Phe(3-Cl)]Q[Dab]G[dPro(4R-(4-pyridylmethyl))])
modifications: ring closure inferred; not fully specified (N-terminus)
B14: SEQ ID NO 312 (peptide)
peptide: cyclo([Bip(4'-COOH)][4Pal][Phe(4-COOH)]G[Pro(cis-4-F)][Trp(βS-Me,4-F)][Aib]EW[Aib][4PyrimAla″]Q[Dab]G[dPro(3S-(4-F-Bn))])
modifications: ring closure inferred; not fully specified (N-terminus); printed as cyclic, Bip4CO2H-4Pal-Phe4COOH-G-Proc4F-SbMeW4F-Aib-E-W-Aib-4PyrimAla-Q-Dab-G-dProc3Bn4F

molecular target: Recombinant human IL-1β (BioLegend 579404) (human, UniProt P01584 117-269); assay: cell-based or functional assay

| MRC5 IC50 [nM] | Binder |
| --- | --- |
| 0.017 | B1 |
| 0.015 | B2 |
| 0.017 | B3 |
| 0.017 | B4 |
| 0.017 | B5 |
| 0.016 | B6 |
| 0.013 | B7 |
| 0.016 | B8 |
| 0.013 | B9 |
| 0.02 | B10 |
| 0.014 | B11 |
| 0.018 | B12 |
| 0.018 | B13 |
| 0.017 | B14 |
